In PMC11325161:

Biological target: SARS-CoV-2 nsp12 wild type (SARS-CoV-2) (UniProt P0DTD1)
Experiment: MST
Conditions: complex

Question: How did the EC50 turn out when “subcomplex of wt nsp7, wt nsp8 and dsRNA (1:2:1) (from UniProt P0DTD1)” was run?
Answer: 12.6 nM
